Results as given in the supplement of paper PMC9732359.
± gives the uncertainty stated by the source.

Assay: protein stability index of a GFP-peptide fusion (yeast GPS) (PSI 1-4); higher = more stable; sorted into four equal gates, so the index is relative within each strain
How it was run: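 Each library plasmid carries Cherry plus GFP with a tiled 17-residue yeast protein peptide fused downstream, and the pooled library was carried in yeast. Mid-log cultures in leucine-free medium were sorted into four equal gates by GFP/Cherry ratio. Reads from Illumina sequencing of PCR-amplified plasmids from each gate were assigned to strains by barcodes. Per peptide, the protein stability index was computed as the summed products of gate read frequency and gate number.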

KKASDLVDTPSNNTAAT [NUT1]
protein stability index (doa10∆): 3.28 ± 0.1 | protein stability index (pdr5∆): 3.17 ± 0.074 | protein stability index (san1∆): 3.11 ± 0.046 | protein stability index (ubr1∆): 3.21 ± 0.06

ANPVVATDPVAAKPDNL [SWP82]
protein stability index (doa10∆): 3.26 ± 0.087 | protein stability index (pdr5∆): 3.15 ± 0.097 | protein stability index (san1∆): 3.23 ± 0.085 | protein stability index (ubr1∆): 3.1 ± 0.05

ASDLVLIVIDVVEGVTF [SNU114]
protein stability index (doa10∆): 1.33 ± 0.041 | protein stability index (pdr5∆): 1.58 ± 0.059 | protein stability index (san1∆): 2.07 ± 0.1 | protein stability index (ubr1∆): 2.38 ± 0.047

AFKATNQTNINSLAVRG [SCL1]
protein stability index (doa10∆): 3.1 ± 0.11 | protein stability index (pdr5∆): 3.21 ± 0.085 | protein stability index (ubr1∆): 2.84 ± 0.11

FNGLKPLIQNSMRTIMK [PRP8]
protein stability index (doa10∆): 2.56 ± 0.091 | protein stability index (pdr5∆): 2.51 ± 0.12 | protein stability index (san1∆): 2.15 ± 0.17 | protein stability index (ubr1∆): 2.56 ± 0.15

KTERVEDQKVVDKALLA [RPL6B]
protein stability index (doa10∆): 1.52 ± 0.17 | protein stability index (pdr5∆): 1.43 ± 0.089 | protein stability index (san1∆): 1.38 ± 0.15 | protein stability index (ubr1∆): 1.19 ± 0.13

CNSLHIPQDFENEVSDI [ESC2]
protein stability index (doa10∆): 2.95 ± 0.06 | protein stability index (pdr5∆): 3.03 ± 0.056 | protein stability index (san1∆): 2.93 ± 0.088 | protein stability index (ubr1∆): 2.92 ± 0.045

QGIVPDIIMNPHGFPSR [RET1]
protein stability index (doa10∆): 2.64 ± 0.05 | protein stability index (pdr5∆): 2.76 ± 0.057 | protein stability index (san1∆): 2.74 ± 0.042 | protein stability index (ubr1∆): 2.56 ± 0.037

LSLNLGDYGSAKCNSLL [POP5]
protein stability index (doa10∆): 2.47 ± 0.061 | protein stability index (pdr5∆): 2.94 ± 0.077 | protein stability index (san1∆): 2.57 ± 0.081 | protein stability index (ubr1∆): 2.46 ± 0.093

LKRRQVIEQCYLKFIPL [SRB8]
protein stability index (doa10∆): 1.91 ± 0.045 | protein stability index (pdr5∆): 1.98 ± 0.048 | protein stability index (san1∆): 1.52 ± 0.082 | protein stability index (ubr1∆): 1.83 ± 0.032

AKRLIHGTSTSAEDEEN [CDC53]
protein stability index (doa10∆): 2.84 ± 0.14 | protein stability index (pdr5∆): 2.44 ± 0.26 | protein stability index (ubr1∆): 3.57 ± 0.19

SPRVEKRSFSSTLKSFF [YOR098C/NUP1]
protein stability index (doa10∆): 1.55 ± 0.067 | protein stability index (pdr5∆): 2 ± 0.046 | protein stability index (san1∆): 2.26 ± 0.078 | protein stability index (ubr1∆): 1.92 ± 0.043

GAKGSTLIVVPFNQGSK [FAS2]
protein stability index (doa10∆): 2.1 ± 0.095 | protein stability index (pdr5∆): 2.48 ± 0.088 | protein stability index (san1∆): 2.18 ± 0.14 | protein stability index (ubr1∆): 1.85 ± 0.073

FTSHTRLRQGAAKLRTL [RPL2A]
protein stability index (doa10∆): 2.03 ± 0.059 | protein stability index (pdr5∆): 1.68 ± 0.044 | protein stability index (san1∆): 2.1 ± 0.073 | protein stability index (ubr1∆): 1.95 ± 0.039

DFAQKEINGDDDEDEDD [PRE10]
protein stability index (doa10∆): 3.09 ± 0.11 | protein stability index (pdr5∆): 3.19 ± 0.071 | protein stability index (san1∆): 3.22 ± 0.082 | protein stability index (ubr1∆): 3.28 ± 0.063

DTLKENATEVQKESDAK [ITC1]
protein stability index (doa10∆): 2.87 ± 0.11 | protein stability index (pdr5∆): 2.94 ± 0.12 | protein stability index (san1∆): 2.85 ± 0.086 | protein stability index (ubr1∆): 3.16 ± 0.26

KTLSLKSMASAFGVSVA [RPN7]
protein stability index (ubr1∆): 1.21 ± 0.13

PAALDGLMKSYKIPKVM [ESC2]
protein stability index (doa10∆): 2.76 ± 0.068 | protein stability index (pdr5∆): 2.94 ± 0.12 | protein stability index (san1∆): 2.85 ± 0.061 | protein stability index (ubr1∆): 3.45 ± 0.088

QERNKIHQYLFQEGVVV [RPS10B]
protein stability index (doa10∆): 1.27 ± 0.06 | protein stability index (pdr5∆): 1.39 ± 0.044 | protein stability index (san1∆): 1.45 ± 0.09 | protein stability index (ubr1∆): 1.45 ± 0.037

SLKNVTEKNREIYKQLN [YIL149C/MLP2]
protein stability index (doa10∆): 3.31 ± 0.097 | protein stability index (pdr5∆): 2.76 ± 0.11 | protein stability index (san1∆): 3.18 ± 0.056 | protein stability index (ubr1∆): 2.99 ± 0.05

WLNGKMDSKGKITIGIQ [RGR1]
protein stability index (doa10∆): 3.69 ± 0.12 | protein stability index (pdr5∆): 3.47 ± 0.21

MIFWNDICQIDTNAPVA [SRB8]
protein stability index (doa10∆): 2.4 ± 0.063 | protein stability index (pdr5∆): 1.8 ± 0.052 | protein stability index (san1∆): 2.12 ± 0.093 | protein stability index (ubr1∆): 2.02 ± 0.051

RRLHKVLRPFLLRRLKK [SNF2]
protein stability index (doa10∆): 2.09 ± 0.078 | protein stability index (pdr5∆): 2.53 ± 0.1 | protein stability index (san1∆): 1.89 ± 0.12 | protein stability index (ubr1∆): 2.53 ± 0.07

YYAHSIPSSKIDDFTTR [SNU114]
protein stability index (doa10∆): 2.96 ± 0.07 | protein stability index (pdr5∆): 3.15 ± 0.078 | protein stability index (san1∆): 3.08 ± 0.067 | protein stability index (ubr1∆): 3.32 ± 0.077

LLEISCKQWEISNMLKK [CSI1]
protein stability index (doa10∆): 1.5 ± 0.052 | protein stability index (pdr5∆): 1.58 ± 0.048 | protein stability index (san1∆): 1.75 ± 0.077 | protein stability index (ubr1∆): 1.5 ± 0.046

SETQTKDENNTANDQYS [YCG1]
protein stability index (doa10∆): 2.89 ± 0.069 | protein stability index (pdr5∆): 3.15 ± 0.056 | protein stability index (san1∆): 2.84 ± 0.041 | protein stability index (ubr1∆): 3 ± 0.044

LFGNNAGNTTTGGGLFG [YGL172W/NUP49]
protein stability index (doa10∆): 2.95 ± 0.18 | protein stability index (pdr5∆): 3.37 ± 0.25 | protein stability index (ubr1∆): 3.36 ± 0.17

KAGVKESDTGLAPSHLW [RPT1]
protein stability index (doa10∆): 2.93 ± 0.16 | protein stability index (san1∆): 3.09 ± 0.12

QIVDIRNKRAVQLPILK [YJL039C/NUP192]
protein stability index (doa10∆): 2.2 ± 0.1 | protein stability index (pdr5∆): 2.04 ± 0.053 | protein stability index (san1∆): 1.43 ± 0.056 | protein stability index (ubr1∆): 1.92 ± 0.058

GAFDQLKQNAIRARIPF [SRP54]
protein stability index (doa10∆): 2.69 ± 0.063 | protein stability index (pdr5∆): 2.89 ± 0.06 | protein stability index (san1∆): 2.9 ± 0.057 | protein stability index (ubr1∆): 3.03 ± 0.07

NLYTPKAEMPPEHLRKI [PRP8]
protein stability index (doa10∆): 2.53 ± 0.072 | protein stability index (pdr5∆): 2.38 ± 0.062 | protein stability index (san1∆): 2.78 ± 0.073 | protein stability index (ubr1∆): 2.12 ± 0.053

PFMSYSPQLTAIIGLKS [SNF12]
protein stability index (doa10∆): 1.67 ± 0.055 | protein stability index (pdr5∆): 2.16 ± 0.062 | protein stability index (san1∆): 2.3 ± 0.078 | protein stability index (ubr1∆): 1.98 ± 0.053

LEVVQYIEDGRNPDIYT [NUT2]
protein stability index (doa10∆): 3.14 ± 0.059 | protein stability index (pdr5∆): 3.25 ± 0.049 | protein stability index (san1∆): 3.15 ± 0.042 | protein stability index (ubr1∆): 3.27 ± 0.039

SVGVIINKMVGNRYLEK [RPL21A]
protein stability index (doa10∆): 3.01 ± 0.14 | protein stability index (pdr5∆): 3.35 ± 0.13 | protein stability index (san1∆): 2.43 ± 0.2 | protein stability index (ubr1∆): 3 ± 0.095

WAVISAFFREKGLVSQQ [RPB2]
protein stability index (doa10∆): 3.38 ± 0.14 | protein stability index (pdr5∆): 3.46 ± 0.1 | protein stability index (san1∆): 3.29 ± 0.078 | protein stability index (ubr1∆): 3.14 ± 0.078

GYFGKVGMRYFHKQQAH [RPL28]
protein stability index (doa10∆): 2.6 ± 0.14 | protein stability index (pdr5∆): 2.76 ± 0.095 | protein stability index (san1∆): 2.89 ± 0.12 | protein stability index (ubr1∆): 2.84 ± 0.05

KADTDTLLYEQIIQRDK [SNF5]
protein stability index (doa10∆): 3.23 ± 0.11 | protein stability index (pdr5∆): 3.37 ± 0.11 | protein stability index (san1∆): 3.21 ± 0.062 | protein stability index (ubr1∆): 3.29 ± 0.064

EVVKSLYDRPLKPDLNK [NAS6]
protein stability index (doa10∆): 3.18 ± 0.11 | protein stability index (pdr5∆): 3.38 ± 0.098 | protein stability index (san1∆): 2.85 ± 0.18 | protein stability index (ubr1∆): 3.42 ± 0.1

DSELNRALFETKLNLHC [RRI1]
protein stability index (doa10∆): 2.75 ± 0.067 | protein stability index (pdr5∆): 2.79 ± 0.053 | protein stability index (san1∆): 3 ± 0.038 | protein stability index (ubr1∆): 2.92 ± 0.055

SCLTFFQALDSEETQFK [ITC1]
protein stability index (doa10∆): 2.73 ± 0.1 | protein stability index (pdr5∆): 3.49 ± 0.13 | protein stability index (san1∆): 2.7 ± 0.11 | protein stability index (ubr1∆): 3.17 ± 0.15

KIRMLTQAAEFLSPYIS [IRR1]
protein stability index (doa10∆): 1.84 ± 0.04 | protein stability index (pdr5∆): 2.46 ± 0.047 | protein stability index (san1∆): 1.74 ± 0.074 | protein stability index (ubr1∆): 2.23 ± 0.045

AFKKIDAITVKDVKAWA [COR1]
protein stability index (doa10∆): 2.06 ± 0.076 | protein stability index (pdr5∆): 1.91 ± 0.072 | protein stability index (san1∆): 1.83 ± 0.14 | protein stability index (ubr1∆): 1.9 ± 0.039

ILQYSRTWYESFCGFLL [YJR042W/NUP85]
protein stability index (doa10∆): 2.11 ± 0.061 | protein stability index (pdr5∆): 1.72 ± 0.049 | protein stability index (san1∆): 1.39 ± 0.14 | protein stability index (ubr1∆): 1.42 ± 0.067

PQRCTFAFEAIDPRHLA [POP1]
protein stability index (doa10∆): 2.55 ± 0.095 | protein stability index (pdr5∆): 3.01 ± 0.077 | protein stability index (san1∆): 2.73 ± 0.087 | protein stability index (ubr1∆): 3.1 ± 0.051

TAAIDSVVSQIEKGSTF [FAS1]
protein stability index (doa10∆): 3.1 ± 0.097 | protein stability index (pdr5∆): 2.95 ± 0.078 | protein stability index (san1∆): 3.12 ± 0.072 | protein stability index (ubr1∆): 2.93 ± 0.057

KKVKLAVLSYYKVDAEG [RPS31]
protein stability index (doa10∆): 1.62 ± 0.084 | protein stability index (pdr5∆): 2.32 ± 0.082 | protein stability index (san1∆): 2.52 ± 0.074 | protein stability index (ubr1∆): 1.95 ± 0.068

DVYTLPSYVHFKVQIIE [YML103C/NUP188]
protein stability index (doa10∆): 1.61 ± 0.055 | protein stability index (pdr5∆): 1.71 ± 0.05 | protein stability index (san1∆): 1.43 ± 0.069 | protein stability index (ubr1∆): 1.66 ± 0.033

ISSHSHPVSLISFAIYS [RRP42]
protein stability index (doa10∆): 1.51 ± 0.052 | protein stability index (pdr5∆): 1.62 ± 0.058 | protein stability index (san1∆): 1.86 ± 0.075 | protein stability index (ubr1∆): 1.54 ± 0.033

KTNKISILKRHSFAVLL [NUT1]
protein stability index (doa10∆): 2.03 ± 0.11 | protein stability index (pdr5∆): 2.4 ± 0.099 | protein stability index (san1∆): 2.19 ± 0.12 | protein stability index (ubr1∆): 1.99 ± 0.075

NPPSYQSSEDVITIKSR [RPB7]
protein stability index (doa10∆): 2.78 ± 0.17 | protein stability index (san1∆): 2.6 ± 0.12 | protein stability index (ubr1∆): 2.25 ± 0.28

EISSQIEILVKDNECSS [RRI2]
protein stability index (doa10∆): 1.5 ± 0.11 | protein stability index (pdr5∆): 1.25 ± 0.15 | protein stability index (ubr1∆): 1.16 ± 0.069

IASKMSLAPEADLDSLI [RPT3]
protein stability index (doa10∆): 2.62 ± 0.1 | protein stability index (pdr5∆): 2.81 ± 0.13 | protein stability index (san1∆): 2.1 ± 0.12 | protein stability index (ubr1∆): 3.07 ± 0.19

ETQVLVSTPEKWDITTR [BRR2]
protein stability index (doa10∆): 3.17 ± 0.092 | protein stability index (pdr5∆): 3.26 ± 0.083 | protein stability index (san1∆): 3.31 ± 0.053 | protein stability index (ubr1∆): 3.21 ± 0.034
